This note sets out measurements from patent US20190030126A1, “Inhibitors of the Interaction BCL-2 L10 / IP3 Receptors” (Universite Claude Bernard - Lyon 1, priority 2016, published 2019).

Assay [1] deals with T1, interaction of Bcl-2 L10/Nrh with the BD domain of the receptor IP3R1 (Homo sapiens, UniProt Q9HD36).
T1 construct: expressed in transfected cells; host or cells: HeLa
T1 sequence (Q9HD36 11-204): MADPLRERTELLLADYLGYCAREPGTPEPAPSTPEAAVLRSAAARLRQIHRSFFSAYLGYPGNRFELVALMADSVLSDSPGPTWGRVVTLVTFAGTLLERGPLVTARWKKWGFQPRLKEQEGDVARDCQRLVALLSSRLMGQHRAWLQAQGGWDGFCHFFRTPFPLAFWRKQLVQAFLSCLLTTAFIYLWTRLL
As to the kind of experiment: Immunoprecipitation (anti-HA) of the Flag-Nrh / HA-hBD interaction in HeLa cells co-transfected with peptide plasmids. Conditions: peptides Flag-tagged, fused to cytochrome b5 domain, plasmid ratio 1:2. Type of assay: cell-based. The text has this:
(B) Quantification of the Nrh-IP3R1 interaction by immunoprecipitation experiments with anti-HA antibodies in HeLa cells transfected with plasmids coding for Flag-Nrh, HA-hBD and the different point mutants of the peptides Nrh 1-23 Flag-tagged with a ratio of 1:2 (N=3).
FIG. 5B presents the ability of these different peptides to inhibit the interaction of Bcl-2 L10/Nrh with the BD domain of the receptor IP3R1. This interaction is quantified by the immunoprecipitation technique, the BD domain being tagged with an HA epitope and the protein Bcl-2 L10/Nrh being tagged with a Flag epitope.
HeLa cells are transfected with plasmids coding for Flag-Nrh, HA-hBD and the different point mutants of the peptide Nrh 1-23 Flag-tagged with a ratio of 1:2, and immunoprecipitation is carried out with an anti-HA antibody.

The target in assay [2] is endogenous protein Bcl-2 L10/Nrh (in cells) (human) (UniProt Q9HD36). As to the kind of experiment: proximity ligation assay of endogenous Nrh and IP3R1, MDA-MB-231 cells; against the no-flash control.
For assay [3] the target is unchanged. As to the kind of experiment: proximity ligation assay of endogenous Nrh and IP3R1, MDA-MB-231 cells; against the vehicle control.
Assay [4] deals with HeLa cells. As to the kind of experiment: Test of apoptosis (SR-FLICA, caspase activity) in transfected HeLa cells treated with thapsigargin. Type of assay: cell-based, human. Conditions: 10 μM thapsigargin for 24 h; for potentiation of thapsigargin effect on caspase activity: HeLa cells transfected with peptide construct (fused to Cb5). The procedure: (B) Test of apoptosis (SR-FLICA) in response to 10 μM of thapsigargin for 24 h in HeLa cells transfected with the empty vector pCS2+ or the constructs coding for Nrh-WT (wild-type), Nrh-ActA, Nrh-cb5, Nrh-dTM or Nrh-dBH4 (N=3). ***, p<0.001;**, p<0.01; n.s. p>0.1 (Student t-test).
(C) Test of apoptosis (SR-FLICA) in response to 10 μM of thapsigargin for 24 h in HeLa cells transfected with the empty vector pCS2+ or the constructs coding for the peptides Nrh 1-23, Nrh 1-23 Y16F or Nrh 1-23 C20A (N=3). ***, p<0.001;**, p<0.01; n.s. p>0.1 (Student t-test).
The effects of these various proteins were observed after transfection of HeLa cells by the empty vector pCS2+ or with the constructs coding for Nrh, Nrh-ActA, Nrh-cb5, dTM or dBH4.

Assay [5] addresses T2, interaction between the endogenous proteins Nrh and IP3R1 (Homo sapiens, UniProt Q9HD36).
T2 construct: endogenous in cells; host or cells: MDA-MB-231
T2 sequence (Q9HD36 11-204): T1 sequence (Q9HD36 11-204)
The assay can be described thus: Proximity ligation assay (PLA) of endogenous Nrh and IP3R1 in MDA-MB-231 cells. Conditions: for inhibition of the Nrh/IP3R1 interaction relative to the limit value: conclusion of the PLA experiment; for percentage inhibition of the Nrh/IP3R1 interaction: with 488 nm flash. Type of assay: cell-based. Here is the method: (A) Proximity ligation assay (PLA) experiments allowing for the detection of the interaction between the endogenous proteins Nrh and IP3R1 in MDA-MB-231 cells.
The MDA-MB-231 cells are incubated for 4 h with the peptide TAT Nrh-1-23 (SEQ ID NO. 4) or the control peptide TAT-Nrh 1-23 Y16F (SEQ ID NO 12, 14 and 6). After 3 washes of the cells, a 488 nm laser is used to excite the fluorophore (FITC) present in the endosomes, rupture the endosomal membrane and release the TAT-FITC peptides into the cytosol. The cells are incubated for 12 h then fixed, and the interaction between Nrh and IP3R1 is quantified by PLA using a rabbit anti-Nrh primary antibody and a mouse anti-IP3R1 primary antibody. This step is followed by incubation with a mixture of anti-rabbit and anti-mouse secondary antibodies, each coupled to a complementary nucleotide probe. A step of ligation then amplification is then carried out in the presence of fluorescent nucleotides, making it possible to amplify a specific signal in the case of spatial proximity of the probes. The fluorescence signal, in which each dot corresponds to an interaction in the cell, is recorded by means of a Nikon NiE fluorescence microscope. The images are quantified by the Image J software, and the interaction score is represented on the graph as number of dots per cell (N=3).

In assay [6] the target is endogenous protein Bcl-2 L10/Nrh (in cells) (human) (UniProt Q9HD36). As to the kind of experiment: proximity ligation assay of endogenous Nrh and IP3R1, MDA-MB-231 cells; as a function of the negative control.
In assay [7] the target is T3, Flag-Nrh (Bcl-2 L10) (Homo sapiens, UniProt Q9HD36).
T3 construct: expressed in transfected cells; host or cells: HeLa (cellular extracts)
T3 sequence (Q9HD36 1-204): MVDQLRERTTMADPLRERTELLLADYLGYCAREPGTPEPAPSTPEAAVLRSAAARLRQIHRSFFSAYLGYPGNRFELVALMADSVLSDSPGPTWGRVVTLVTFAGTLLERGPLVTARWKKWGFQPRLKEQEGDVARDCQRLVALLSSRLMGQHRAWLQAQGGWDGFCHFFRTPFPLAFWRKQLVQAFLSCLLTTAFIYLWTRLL
As to the kind of experiment: Streptavidin pull-down with biotin-labelled peptide, HeLa extracts expressing Flag-Nrh. Conditions: 5 μg of biotin-labelled peptide. Type of assay: binding. Here is the method: (§1) (A) Streptavidin pull-down in HeLa cells transfected with either empty vector pCS2+, Flag-Nrh, HA-hBD or HA-BECN1, which cellular extracts were incubated or not with 5 μg of biotin-labelled Nrh 1-23 peptide.
(§2) (B) Streptavidin pull-down in HeLa cells transfected with either empty vector pCS2+, Flag-Nrh, or Flag-Nrz, which cellular extracts were incubated with 5 μg of biotin-labelled Nrh 1-23 peptide or Nrh 1-23 R6A Y16F double mutant peptide.
(§3) (A) HeLa cells were transfected with either empty vector pCS2+, Flag-Nrh, HA-hBD or HA-Beclin1 (referred to as HA-BECN1), a protein well known for its binding capacities to Nrh, then cellular extracts were incubated or not with 5 μg of biotin-labelled Nrh 1-23 wild-type peptide. Streptavidin is used for pulling-down the complexes comprising biotin-labelled Nrh peptide.
(§4) Streptavidin is used for pulling-down the complexes comprising biotin-labelled Nrh peptide.

For assay [8], the system named is Flag-Nrz. As to the kind of experiment: Streptavidin pull-down with biotin-labelled peptide, HeLa extracts expressing Flag-Nrz. Format: binding, zebrafish. Conditions: 5 μg of biotin-labelled peptide. Here is the method: as §2, §4
Assay [9] has as its target T4, Nrh homodimer (Flag-Nrh / HA-Nrh) (Homo sapiens, UniProt Q9HD36).
T4 construct: the ability of the whole protein Nrh (Bcl-2 L10) to dimerise
T4 sequence (Q9HD36 11-204): T1 sequence (Q9HD36 11-204)
As to the kind of experiment: Co-immunoprecipitation (anti-HA) of Flag-Nrh and HA-Nrh: Nrh homodimerisation. Format: binding. As to conditions: incubation with the peptide. The text has this: Quantification of the interaction between Flag-Nrh and HA-Nrh using co-immunoprecipitation with anti-HA antibody.
FIG. 7 illustrates the quantification of the interaction between Flag-Nrh and HA-Nrh using co-immunoprecipitation with anti-HA antibody. Formation of a Nrh homodimer is observed.

The target of assay [10] is T5, HA-hBD (IP3 binding domain of IP3R1) (Homo sapiens, UniProt Q14643).
T5 construct: extending from residue 226 to residue 565 in the human protein; expressed in transfected cells; host or cells: HeLa (cellular extracts)
T5 sequence (Q14643 226-565): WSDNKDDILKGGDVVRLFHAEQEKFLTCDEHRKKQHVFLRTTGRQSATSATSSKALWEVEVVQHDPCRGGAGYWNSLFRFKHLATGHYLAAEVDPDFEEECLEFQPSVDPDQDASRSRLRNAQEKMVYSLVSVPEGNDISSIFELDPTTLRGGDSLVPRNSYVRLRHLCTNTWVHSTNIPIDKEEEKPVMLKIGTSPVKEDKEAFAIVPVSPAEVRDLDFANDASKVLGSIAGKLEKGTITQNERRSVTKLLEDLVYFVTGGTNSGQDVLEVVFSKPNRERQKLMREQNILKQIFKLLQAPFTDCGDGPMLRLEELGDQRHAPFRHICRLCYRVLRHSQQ
As to the kind of experiment: Streptavidin pull-down with biotin-labelled peptide, HeLa extracts expressing HA-hBD. As to conditions: 5 μg of biotin-labelled peptide. Here is the method:
as §1, §3

The target of assay [11] is endogenous protein Bcl-2 L10/Nrh (in cells) (human) (UniProt Q9HD36). The assay can be described thus: cell-based or functional assay.
Assay [12] has as its target T6, HA-hBD (IP3 ligand binding domain of human IP3R1 tagged with an HA epitope) (human, UniProt Q14643-2 226-565, limits assumed).
T6 construct: Expressed in HeLa cells; also called HA-hBD IP3R1; BD domain of the receptor IP3R1
The assay can be described thus: streptavidin pull-down from extracts of transfected HeLa cells.

Setting [13] is: 488 nm flash used to release the peptide.

Values joined by “and” are separate entries in the source; they are usually repeats but may differ in a detail not shown here. Equal values may be shown once. No end group written: not given here.

T6 sequence (Q14643 other isoform, or with tags, fused parts or gaps limits assumed): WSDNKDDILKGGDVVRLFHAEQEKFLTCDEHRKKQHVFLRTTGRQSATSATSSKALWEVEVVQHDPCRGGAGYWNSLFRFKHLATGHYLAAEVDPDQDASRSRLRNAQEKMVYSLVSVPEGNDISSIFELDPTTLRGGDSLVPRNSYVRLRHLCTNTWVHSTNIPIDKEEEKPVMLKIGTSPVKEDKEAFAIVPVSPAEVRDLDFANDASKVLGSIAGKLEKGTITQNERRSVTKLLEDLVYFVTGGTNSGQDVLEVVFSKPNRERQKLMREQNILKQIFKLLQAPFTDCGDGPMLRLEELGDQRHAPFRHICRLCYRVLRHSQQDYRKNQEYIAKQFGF

For “MADPLAERTELLLADYLGYCARE (Synthetic peptide Peptide R6A) [Nrh R6A, point mutant of Nrh 1-23, non-functional]”, the “ability to inhibit the Nrh/IP3R1 BD interaction (Flag-Nrh band on Western blot after anti-HA immunoprecipitation)” value in assay [1] is “still visible, albeit faintly”.

Turning to “MADPLRERTELLLADFLGYCARE (Synthetic peptide Y16F) [Nrh Y16F, point mutant of Nrh 1-23, non-functional]”, the “ability to inhibit the Nrh/IP3R1 BD interaction (Flag-Nrh band on Western blot after anti-HA immunoprecipitation)” value in assay [1] is “still visible, albeit faintly”.

“control peptide TAT-Nrh 1-23 Y16F, FITC-coupled”: the values for the percentage inhibition of the Nrh/IP3R1 interaction in [2] and in assay [3] were 25% and 18.8%, respectively.

Consider `C/C=C(/C)C(=O)O[C@H]1C(C)=C2[C@H]([C@@H]1OC(=O)CCCCCCC)[C@@](C)(OC(C)=O)C[C@H](OC(=O)CCC)[C@@]1(O)[C@H]2OC(=O)[C@@]1(C)O` [thapsigargin, reference compound], for which the caspase activity entry in assay [4] (HeLa control cells (empty vector pCS2+)) was “greatly induced”.

“TAT Nrh Y16F: combination of TAT (SEQ ID NO. 12), a spacer (SEQ ID NO. 14) and SEQ ID NO. 6 without the methionine; control outside the invention (RKKRRQRRRGGSGGADPLRERTELLLADFLGYCARE)”: the “PLA interaction score Nrh/IP3R1” value in [5] (setting [13]) stood at 65±5 dots per cell. Also, the “inhibition of the Nrh/IP3R1 interaction relative to the limit value” in [5] is less than 30%.

As to “MADPLRERTELLLAAYLGYCARE (Synthetic peptide D15A) [Nrh D15A, point mutant of Nrh 1-23, functional]”, in assay [1], the “ability to inhibit the Nrh/IP3R1 BD interaction (Flag-Nrh band on Western blot after anti-HA immunoprecipitation)” value was “dissociate the Nrh/IP3R1 interaction”.

Regarding “peptide TAT-Nrh 1-23 (TAT-spacer-domain of binding to IP3Rs without methionine), FITC-coupled”, in [6], the percentage inhibition of the Nrh/IP3R1 interaction is 86% and 87%.

Regarding “MADPLRERTELLLADYLGYAARE (Synthetic peptide C20A) [Nrh C20A, point mutant of Nrh 1-23, functional]”, the “ability to inhibit the Nrh/IP3R1 BD interaction (Flag-Nrh band on Western blot after anti-HA immunoprecipitation)” value in assay [1] is on record as “dissociate the Nrh/IP3R1 interaction”. Also, in assay [4], the “potentiation of thapsigargin effect on caspase activity” value is listed as “this effect is maintained”.

Turning to “Nrh 1-23 R6A Y16F: biotin-labelled Nrh 1-23 R6A Y16F double mutant peptide (MADPLAERTELLLADFLGYCARE; also: biotin-labelled (position not given here))”, the “interaction with Nrh (pull-down)” value in assay [7] is listed as “reduced interaction with Nrh”.

With MADPLRERTELLLADYLGYCARE [Nrh 1-23], in assay [1], the “ability to inhibit the Nrh/IP3R1 BD interaction (Flag-Nrh band on Western blot after anti-HA immunoprecipitation)” value is “dissociate the Nrh/IP3R1 interaction”. The “potentiation of thapsigargin effect on caspase activity” value in assay [4] is recorded as “virtually doubled”. For the same molecule, the “interaction with Nrz (pull-down)” value in assay [8] is given as “not Nrz”. For the same molecule, the “prevention of Nrh homodimerisation” value in assay [9] is reported as “can be prevented”. In addition, in assay [7], the “interaction with Nrh (pull-down)” value was “only able to interact with Nrh”. For the same molecule, the “interaction with HA-hBD (pull-down)” value in assay [10] is given as “not with HA-hBD”.

In the case of “peptide Nrh 1-23 fused at the C-terminal end with the cytochrome b5 targeting domain, Flag-tagged”, in assay [11], the caspase activity (SR-FLICA apoptosis test), HeLa cells, 10 µM thapsigargin for 24 h turned out to be 2 fold.

As for “RKKRRQRRRGGSGGADPLRERTELLLADYLGYCARE [TAT Nrh 1-23]”, the “PLA interaction score Nrh/IP3R1” value in [5] (setting [13]) amounted to 11±1 dots per cell; in [5] (in the absence of 488 nm flash (no release of the peptides into the cytosol)), 87±6 dots per cell. Besides, the “inhibition of the Nrh/IP3R1 interaction relative to the limit value” in [5] is recorded as “at least 30%”. The “percentage inhibition of the Nrh/IP3R1 interaction” value is recorded as 87% in assay [5] (negative control = TAT Nrh 1-23 without flash (87 dots per cell)) and 86% in assay [5] (negative control = vehicle (80 dots per cell)).

B1: biotin-labelled Nrh 1-23 wild-type peptide (peptide)
peptide: MADPLRERTELLLADYLGYCARE
modifications: also: biotin-labelled (position not given here)
notes: 3 (same without the first methionine); also called biotin-labelled Nrh 1-23 peptide
Regarding B1, the binding result in assay [12] is “no binding (tested: 5 µg of biotin-labelled peptide)”.

B2: Bcl-2 L10/Nrh-WT: the human Bcl-2 L10/Nrh protein in its wild-type, whole form, expressed from a transfected construct (protein, UniProt Q9HD36 1-204, looked up)
chain: T3 sequence (Q9HD36 1-204)
modifications: full-length
notes: the human Bcl-2 L10/Nrh protein in its wild-type, whole form, expressed from a transfected construct
As for B2, the “effect on thapsigargin-induced caspase activity (apoptosis-blocking effect)” value in assay [4] (HeLa cells overexpressing Nrh construct) is on record as “reduced by half”.
